Our source for the abundance fitness values is the Human Domainome abundance scans (Beltran et al. 2025).

Sequences and labels used below:
B1: Ankyrin repeat and SOCS box protein 14, residues 532 to 572; numbered along this chain, A6NK59 (parent)
chain: RSLKHLCRLKIRKCMGRLHLRCPVFMSFLPLPNRLKAYVLY

± gives the uncertainty stated by the source.

The data set covers variants of B1. The data set is described as follows: abundance fitness (aPCA) (normalised: wild type 0, dead -1); higher = more abundant; growth selection in yeast, the domain comes from the species named. The following applies: Homo sapiens.
As to RSLKHLCRLKIRACMGRLHLRCPVFMSFLPLPNRLKAYVLY [K13A], the abundance fitness was determined as 0.009 ± 0.048.
Then RSLKHLCRLKIRECMGRLHLRCPVFMSFLPLPNRLKAYVLY [K13E], with 0.201 ± 0.055.
The value for RSLKHLCRLKIRCCMGRLHLRCPVFMSFLPLPNRLKAYVLY [K13C] was -0.192 ± 0.096; that for RSLKHLCRLKIRTCMGRLHLRCPVFMSFLPLPNRLKAYVLY [K13T] was -0.161 ± 0.062; that for RSLKHLCRLKIRWCMGRLHLRCPVFMSFLPLPNRLKAYVLY [K13W] was -0.166 ± 0.059.
Consider RSLKHLCRLKIRHCMGRLHLRCPVFMSFLPLPNRLKAYVLY [K13H], for which the abundance fitness is -0.081 ± 0.43.
Then RSLKHLCRLKIKKCMGRLHLRCPVFMSFLPLPNRLKAYVLY [R12K], with 0.129 ± 0.065; and RSLKHLCRLKIVKCMGRLHLRCPVFMSFLPLPNRLKAYVLY [R12V], with -0.071 ± 0.075; and RSLKHLCRLKICKCMGRLHLRCPVFMSFLPLPNRLKAYVLY [R12C], with -0.249 ± 0.099.
Then RSLKHLCRLKIPKCMGRLHLRCPVFMSFLPLPNRLKAYVLY [R12P], with -0.235 ± 0.079; and RSLKHLCRLKIQKCMGRLHLRCPVFMSFLPLPNRLKAYVLY [R12Q], with -0.168 ± 0.065.
Consider RSLKHLCRLKIIKCMGRLHLRCPVFMSFLPLPNRLKAYVLY [R12I], for which the abundance fitness turned out to be 0.099 ± 0.32.
The value for RSLKHLCRLKITKCMGRLHLRCPVFMSFLPLPNRLKAYVLY [R12T] was -0.224 ± 0.085; that for RSLKHLCRLKIAKCMGRLHLRCPVFMSFLPLPNRLKAYVLY [R12A] was -0.261 ± 0.06.
Take RSLKHLCRLKIWKCMGRLHLRCPVFMSFLPLPNRLKAYVLY [R12W]: the abundance fitness was -0.201 ± 0.068.
Then RSLKHLCRLKISKCMGRLHLRCPVFMSFLPLPNRLKAYVLY [R12S], with -0.178 ± 0.1.
The value for RSLKHLCRLKIDKCMGRLHLRCPVFMSFLPLPNRLKAYVLY [R12D] was -0.03 ± 0.17; that for RSLKHLCRLKIMKCMGRLHLRCPVFMSFLPLPNRLKAYVLY [R12M] was 0.083 ± 0.072.
On to RSLKHLCRLKIGKCMGRLHLRCPVFMSFLPLPNRLKAYVLY [R12G], for which the abundance fitness was -0.262 ± 0.042.
The value for RSLKHLCRLKIHKCMGRLHLRCPVFMSFLPLPNRLKAYVLY [R12H] was -0.662 ± 0.47; that for RSLKHLCRLKILKCMGRLHLRCPVFMSFLPLPNRLKAYVLY [R12L] was -0.063 ± 0.072; that for RSLKHLCRLKIRKCSGRLHLRCPVFMSFLPLPNRLKAYVLY [M15S] was -0.612 ± 0.13.
The value for RSLKHLCRLKIRKCAGRLHLRCPVFMSFLPLPNRLKAYVLY [M15A] was -0.204 ± 0.048; that for RSLKHLCRLKIRKCTGRLHLRCPVFMSFLPLPNRLKAYVLY [M15T] was -0.383 ± 0.07.
As to RSLKHLCRLKIRKCGGRLHLRCPVFMSFLPLPNRLKAYVLY [M15G], the abundance fitness is -0.367 ± 0.053.
For the variant RSLKHLCRLKIRKCRGRLHLRCPVFMSFLPLPNRLKAYVLY [M15R], the abundance fitness is -0.6 ± 0.082.
Then RSLKHLCRLKIRKCHGRLHLRCPVFMSFLPLPNRLKAYVLY [M15H], with -0.794 ± 0.17; and RSLKHLCRLKIRKCVGRLHLRCPVFMSFLPLPNRLKAYVLY [M15V], with -0.126 ± 0.074; and RSLKHLCRLKIRKCWGRLHLRCPVFMSFLPLPNRLKAYVLY [M15W], with 0.132 ± 0.056.
Consider RSLKHLCRLKIRKCLGRLHLRCPVFMSFLPLPNRLKAYVLY [M15L], for which the abundance fitness came out at 0.202 ± 0.055.
The value for RSLKHLCRLKIRKCDGRLHLRCPVFMSFLPLPNRLKAYVLY [M15D] was -1 ± 0.15.
In the case of RSLKHLCRLKIRKCYGRLHLRCPVFMSFLPLPNRLKAYVLY [M15Y], the abundance fitness is -0.701 ± 0.33.
Then RSLKHLCRLKIRKCCGRLHLRCPVFMSFLPLPNRLKAYVLY [M15C], with -0.319 ± 0.091; and RSLKHLCRLKIRKCQGRLHLRCPVFMSFLPLPNRLKAYVLY [M15Q], with -0.576 ± 0.077; and RSLKHLCRLKIRKCPGRLHLRCPVFMSFLPLPNRLKAYVLY [M15P], with -0.671 ± 0.1.
Consider RSLKHLCRLKIRKCEGRLHLRCPVFMSFLPLPNRLKAYVLY [M15E], for which the abundance fitness is -0.738 ± 0.088.
Regarding RSLKHLCRLKIRKCFGRLHLRCPVFMSFLPLPNRLKAYVLY [M15F], the abundance fitness is -0.16 ± 0.23.
Then RSLKHLCRLKPRKCMGRLHLRCPVFMSFLPLPNRLKAYVLY [I11P], with -0.675 ± 0.065; and RSLKHLCRLKWRKCMGRLHLRCPVFMSFLPLPNRLKAYVLY [I11W], with 0.023 ± 0.056.
The value for RSLKHLCRLKCRKCMGRLHLRCPVFMSFLPLPNRLKAYVLY [I11C] was -1.05 ± 0.13; that for RSLKHLCRLKQRKCMGRLHLRCPVFMSFLPLPNRLKAYVLY [I11Q] was -0.992 ± 0.13.
For RSLKHLCRLKKRKCMGRLHLRCPVFMSFLPLPNRLKAYVLY [I11K], the abundance fitness is -0.858 ± 0.2.
Then RSLKHLCRLKVRKCMGRLHLRCPVFMSFLPLPNRLKAYVLY [I11V], with -0.17 ± 0.063; and RSLKHLCRLKRRKCMGRLHLRCPVFMSFLPLPNRLKAYVLY [I11R], with -0.956 ± 0.081; and RSLKHLCRLKERKCMGRLHLRCPVFMSFLPLPNRLKAYVLY [I11E], with -0.953 ± 0.17.
The value for RSLKHLCRLKARKCMGRLHLRCPVFMSFLPLPNRLKAYVLY [I11A] was -0.613 ± 0.071; that for RSLKHLCRLKTRKCMGRLHLRCPVFMSFLPLPNRLKAYVLY [I11T] was -0.722 ± 0.18; that for RSLKHLCRLKLRKCMGRLHLRCPVFMSFLPLPNRLKAYVLY [I11L] was -0.09 ± 0.067.
As to RSLKHLCRLKGRKCMGRLHLRCPVFMSFLPLPNRLKAYVLY [I11G], the abundance fitness is -0.68 ± 0.073.
In the case of RSLKHLCRLKIRKCMNRLHLRCPVFMSFLPLPNRLKAYVLY [G16N], the abundance fitness amounted to 0.231 ± 0.15.
The value for RSLKHLCRLKIRKCMLRLHLRCPVFMSFLPLPNRLKAYVLY [G16L] was 0.102 ± 0.052; that for RSLKHLCRLKIRKCMHRLHLRCPVFMSFLPLPNRLKAYVLY [G16H] was 0.024 ± 0.077.
As for RSLKHLCRLKIRKCMWRLHLRCPVFMSFLPLPNRLKAYVLY [G16W], the abundance fitness is -0.058 ± 0.057.
Then RSLKHLCRLKIRKCMTRLHLRCPVFMSFLPLPNRLKAYVLY [G16T], with 0.12 ± 0.056; and RSLKHLCRLKIRKCMERLHLRCPVFMSFLPLPNRLKAYVLY [G16E], with 0.355 ± 0.064.
The value for RSLKHLCRLKIRKCMRRLHLRCPVFMSFLPLPNRLKAYVLY [G16R] was 0.121 ± 0.045; that for RSLKHLCRLKIRKCMKRLHLRCPVFMSFLPLPNRLKAYVLY [G16K] was 0.092 ± 0.089.
Then RSLKHLCRLKIRKCMFRLHLRCPVFMSFLPLPNRLKAYVLY [G16F], with -0.152 ± 0.094.
Regarding RSLKHLCRLKIRKCMQRLHLRCPVFMSFLPLPNRLKAYVLY [G16Q], the abundance fitness worked out at 0.356 ± 0.05.
Then RSLKHLCRLKIRKCMPRLHLRCPVFMSFLPLPNRLKAYVLY [G16P], with -0.105 ± 0.061.
Then RSLKHLCRLKIRKCMCRLHLRCPVFMSFLPLPNRLKAYVLY [G16C], with -0.269 ± 0.065.
The value for RSLKHLCRLKIRKCMDRLHLRCPVFMSFLPLPNRLKAYVLY [G16D] was 0.084 ± 0.31.
